The record followed here is article doi:10.1101/2020.11.24.393629 (bioRxiv, 2020).

Broadly, the EC50 is the midpoint of the concentration-response curve.

One experiment has as its target SARS-CoV RBD (SARS-CoV, GenBank NC_004718.3, UniProt P59594). The experiment in a line: BLI.
Experiment [1] addresses T1, Recombinant RBD protein of SARS-CoV-2 with His tag (SARS-CoV-2, UniProt P0DTC2). In words: ELISA. For orientation: In an ELISA, binding on a coated surface is turned into a signal by an enzyme label.
For experiment [2], the target named is SARS-CoV-2 S on 293T cells expressing SARS-CoV-2 S (SARS-CoV-2-S cells) (SARS-CoV-2, UniProt P0DTC2). In words: flow cytometry on cells. For orientation: A flow cytometer gives signals particle by particle.
Experiment [3] deals with T1, Recombinant RBD protein of SARS-CoV-2 …. The experiment in a line: flow cytometry on cells.

B1: HB27, humanized anti-SARS-CoV-2 monoclonal antibody (IgG) (antibody, V domains shown)
VH: VKLVESGGGLVKPGGSLRLSCAASGFTFTNYGMSWVRQAPGKRLEWVAEISSGGSYTYYPDTVTGRFTISRDNAKNTLYLQMNSLRAEDTAVYYCARFRYGGGGTVDYWGQGTLVTVSS
VL: IVLTQSPTLSLSPGERATLSCRASESVDNYGISFMNWFQQKPGQAPRLLIYAASNQGSGIPSRFSGSGSGTDFSLTISSLEPEDFAVYFCQQSKEVPRIFGQGTKVEIL
On to B1, for which the binding result in the experiment with SARS-CoV RBD is on record as “no binding”. Further, the EC50 in experiment [1] was 0.5 nM; in experiment [2], 5 to 50 nM; in experiment [3], 5 to 50 nM.
